What was measured:
[1] = In vitro conversion of CBD with combined glycosyl transferases (sugar-sugar linkages); assay type: biochemical
Description: The glycosyl transferases described herein can broadly be grouped into either glycosyl transferases active on the cannabinoid aglycones or glycosyl transferases active on cannabinoid glycosides. The latter group, instead of attaching a sugar moiety onto a free hydroxy group on the cannabinoid molecule, attaches a sugar moiety onto the sugar group of the cannabinoid glycoside. In Example 13 a range of glycosyl transferases were discovered that were active only on cannabinoid aglycones (e.g. PL-159(Pt88G_GA) (SEQ ID NO: 147, 148)) as well a range of glycosyl transferases which were active on both cannabinoid aglycones and cannabinoid glycosides. […] Two of these enzymes (PL-55(Sr76G1_GA) (SEQ ID NO: 123, 124) and PL-32(OsEUGT11_GA) (SEQ ID NO: 115, 116)) are described in prior art and are well known to catalyze a range of sugar on sugar reactions and were recently described as being able to perform sugar on sugar reactions on cannabinoid glycosides. […] In vitro assays were performed and analyzed as described previously. […] By comparing the LC-MS/QTOF retention time, measured mass and fragmentation pattern as well as the c Log P it could be elucidated that Sr76G1, OsEUGT11 and Si94D were catalysing sugar on sugar reactions with different linkages. […]

[2] = In vitro glycosyl transferase performance, purified enzymes, % conversion of cannabinoids to cannabinoid glycosides; assay type: biochemical
Method: For in vitro studies of glycosyl transferase performance in glycosylating cannabinoids, purified Glycosyl transferases were prepared as follows:
5 mL of 2× concentrated LB medium+Ampicillin (50 μg/m L) was inoculated with E. coli XJb (DE3) strains expressing a glycosyl transferase of interest and incubated overnight at 30° C. with shaking. The following day, cell cultures were transferred into 500 mL of 2× concentrated LB medium+Ampicillin (50 μg/mL) and incubated overnight at 30° C. with shaking. The following day, the cell cultures were transferred to 1 L of 2× concentrated LB medium+Ampicillin (50 μg/mL)+3 mM arabinose+0.1 mM IPTG. Cells were incubated for 24 h at 20° C. with shaking. The following day, the cells were collected by centrifugation at 46500×g for 10 mins at 4° C. Cells were resuspended in 20 mL ice-cold GT buffer (50 mM Tris-HCl pH7.4+1 mM phenylmethanesulfonyl fluoride+1 cOmplete™, mini, EDTA-free Protease Inhibitor Cocktail tablet (Roche)). The resuspended material was transferred to a 50 mL falcon tube and kept at −80° C. for at least 15 mins. Falcon tubes were then thawed at room temperature, as the tubes were thawing the following reagents were added; 2.6 mM MgCl2, 1 mM CaCl2, 250 μL of a 1.4 mg/ml DNase solution (Sigma) dissolved in MilliQ water. Tubes were gently inverted to mix then were incubated for 5 mins at 37° C. Binding buffer was then added to the tubes (50 mM Tris-HCl pH7.4, 10 mM imidazole, 500 mM NaCl. 11.25 mL MilliQ water) and the pH adjusted to 7.4 with HCl. The mix was centrifuged at 15550×g for 15 mins at 4° C., the supernatant transferred to a fresh 50 mL falcon tubes and centrifuged again to remove any remaining cellular debris at 48400×g for 20 minutes at 4° C. While the enzyme prep was centrifuging, 3 mL of HIS-Select (available from Sigma P6611) column material was added to a fresh 50 mL tube and washed by adding MilliQ water up to 50 mL, centrifuging at 2000×g for 2 mins and discarding the supernatant. This washing step was repeated. Finally, MilliQ water was added to the HIS-Select material to an approximate 50% volume. Collected supernatant from the centrifuged enzyme preparation was transferred to the tube containing the HIS-Select material through a Miracloth (available from Merck Millipore), and then incubated at 4° C. with gently shaking by inversion for 2 h. After 2 h the mix was centrifuged at 2000×g for 4 minutes at 4° C. and the supernatant discarded. The remaining HIS-Select material was washed twice with 1× binding buffer (50 mM Tris-HCl, 0.5M NaCl, 10 mM Imidazole, pH 7.4) with centrifugation at 2000×g for 4 minutes at 4° C. The HIS-Select material was resuspended in 5 mL 1× binding buffer and transferred to a Poly-Prep®Chromatography Column (available from BioRad, 7311550). The HIS-Select material was kept at 4° C. and washed twice with 1× binding buffer by filling up the column and allowing it to drip through. Finally, purified Glycosyl transferases were eluted from the HIS-Select material by adding 7.5 mL of elution buffer (50 mM Tris-HCl, 500 mM Imidazole, pH7.4) and collecting the flow through. Enzymes were used immediately in in vitro enzyme assays or stored at −20° C. in 50% glycerol until needed.
In vitro conversion of various cannabinoids to cannabinoid glycosides was carried out according to table 21. Alkaline phosphatase was provided by New England Biolabs (M0371S). Cannabinoids were dissolved in methanol. The UDP-sugar (e.g. UDP-glucose) was provided by a commercial supplier (e.g. Sigma) or produced by in vitro enzymatic conversion from a commercially available UDP-sugar as shown in Example 21.
The reaction mixture was scaled up or down as required. The reaction mixture was incubated without shaking at 30° C. for 24 hours. Extraction and analysis were performed as described above for this example. […]

[3] = In vivo bioconversion of cannabinoid substrate to glycoside in E. coli expressing glycosyl transferases; assay type: cell-based
Method: The Sr76G1 expression plasmid (PL-55(Sr76G1_GA (SEQ ID NO:123,124)) was also included (resulting in E. coli strain EC-55) to test whether the absence of activity observed in vitro was also observed in vivo. Strains were subsequently incubated overnight in 5 mL of LB media supplemented with ampicillin in 10 mL pre-culture tubes at 37° C. Subsequently, cells were inoculated to a starting OD600 of 0.1 in 500 μL of LB media supplemented with ampicillin in a 96 deep-well plate and incubated at 30° C. for 6 hours. A cannabinoid substrate was then dissolved in ethanol and added to the culture media along with a suitable inducing agent (IPTG) in the following final concentrations:
Cannabinoid substrate: 250 μM
Cells were cultivated with the added ethanol, cannabinoid substrate and IPTG for a further 66 hours. Cannabinoid glycosides were extracted and analyzed by HPLC analysis as described above. The decrease in cannabinoid concentration and accumulation of cannabinoid glycosides were quantified and percent conversion calculated for each glycoside. As shown in table 51 below E. coli strains expressing glycosyl transferases could convert a range of cannabinoids into their corresponding glycosides.

B1: Si94D: glycosyl transferase active on cannabinoid glycosides, SEQ ID NO: 145, 146 (protein)
chain: MDTRKRSIRILMFPWLAHGHISAFLELAKSLAKRNFVIYICSSQVNLNSISKNMSSKDSISVKLVELHIPTTILPPPYHTTNGLPPHLMSTLKRALDSARPAFSTLLQTLKPDLVLYDFLQSWASEEAESQNIPAMVFLSTGAAAISFIMYHWFETRPEEYPFPAIYFREHEYDNFCRFKSSDSGTSDQLRVSDCVKRSHDLVLIKTFRELEGQYVDFLSDLTRKRFVPVGPLVQEVGCDMENEGNDIIEWLDGKDRRSTVFSSFGSEYFLSANEIEEIAYGLELSGLNFIWVVRFPHGDEKIKIEEKLPEGFLERVEGRGLVVEGWAQQRRILSHPSVGGFLSHCGWSSVMEGVYSGVPIIAVPMHLDQPFNARLVEAVGFGEEVVRSRQGNLDRGEVARVVKKLVMGKSGEGLRRRVEELSEKMREKGEEEIDSLVEELVTVVRRRERSNLKSENSMKKLNVMMMENREGMLSENA
efficiency of 1-6 glucose-glucose linkage (gentiobioside) formation ([1]; combined with Pt88G, CBD and UDP-glucose as substrates): 100%

B2: PL-159(Pt88G_GA) (protein)
chain: MEDTIVLYPSPGRGHLFSMVELGKQILEHHPSISITIIISAMPTESISIDDPYFSTLCNTNPSITLIHLPQVSLPPNTSFSPLDFVASFFELPELNNTNLHQTLLNLSKSSNIKAFIIDFFCSAAFEFVSSRHNIPIYFFYTTCASGLSMFLHLPILDKIITKSLKDLDIIIDLPGIPKIPSKELPPAISDRSHRVYQYLVDTAKLMIKSAGLIINTFELLERKALQAIQEGKCGAPDEPVPPLFCVGPLLTTSESKSEHECLTWLDSQPTRSVLFLCFGSMGVFNSRQLRETAIGLEKSGVRFLWVVRPPLADSQTQAGRSSTPNEPCLDLLLPEGFLERTKDRGFLVNSWAPQVEILNHGSVGGFVTHCGWNSVLEALCAGVPMVAWPLYAEQRMNRIFLVEEMKVALAFREAGDDHFVNAAELEERVIELMNSKKGEAVRERVLKLREDAVVAKSDGGSSCIAMAKLVDCFKKG
% conversion of CBD to OB1 (CBD-1′-O-β-D-glucoside) ([2]; glycosyl transferase in vitro, Table 24): 97.4%
% conversion of CBD to OB13 (CBD-1′-O-α-L- rhamnoside) ([2]; glycosyl transferase in vitro, Table 25): 2.0%
% conversion of CBD to OB9 (CBD-1′-O-β-D-xyloside) ([2]; glycosyl transferase in vitro, Table 26): 12.4%
% conversion of CBDV to OB24 (CBDV-1′-O-β-D-glucoside) ([2]; glycosyl transferase in vitro, Table 33): 89.2%
% conversion of CBDA to OB31 (CBDA-1′-O-β-D-glucoside) ([2]; glycosyl transferase in vitro, Table 37): 12.0%
% conversion, CBG to OB32 (CBG-1′-O-β-D-glucoside) ([2]; substrate CBG, product OB32, glycosyl transferase in vitro): 51.9%
amount of CBD converted to OB1 (CBD-1′-O-β-D-glucoside) expressed as a percentage ([1]; substrate CBD, in vitro): 97.5%

B3: Sr76G1: glycosyl transferase isolated from S. rebaudiana, SEQ ID NO: 123, 124, described in prior art (protein)
chain: MDQMAKIDEKKPHVVFIPFPAQSHIKCMLKLARILHQKGLYITFINTDTNHERLVASGGTQWLENAPGFWFKTVPDGFGSAKDDGVKPTDALRELMDYLKTNFFDLFLDLVLKLEVPATCIICDGCMTFANTIRAAEKLNIPVILFWTMAACGFMAFYQAKVLKEKEIVPVKDETYLTNGYLDMEIDWIPGMKRIRLRDLPEFILATKQNYFAFEFLFETAQLADKVSHMIIHTFEELEASLVSEIKSIFPNVYTIGPLQLLLNKITQKETNNDSYSLWKEEPECVEWLNSKEPNSVVYVNFGSLAVMSLQDLVEFGWGLVNSNHYFLWIIRANLIDGKPAVMPQELKEAMNEKGFVGSWCSQEEVLNHPAVGGFLTHCGWGSIIESLSAGVPMLGWPSIGDQRANCRQMCKEWEVGMEIGKNVKRDEVEKLVRMLMEGLEGERMRKKALEWKKSATLATCCNGSSSLDVEKLANEIKKLSRN
glycosyltransferase activity using cannabinoid aglycones as substrate ([2]; any cannabinoid aglycone): no glycosyltransferase activity was detected
glycosyl transferase activity in vivo ([3]; E. coli strain EC-55): lack of activity

B4: Cs73Y: glycosyl transferase, SEQ ID NO: 157 (207 for the yeast codon-optimized gene) (protein)
chain: MGSEGRQLHIFMFPFMAHGHMIPIVDMAKLFASRGIKITIVTTPLNSISISKSLHNCSPNSLIQLLILKFPAAEAGLPDGCENADSIPSMDLLPKFFEAVSLLQPPFEEALHNNRPDCLISDMFFPWTNDVADRVGIPRLIFHGTSCFSLCSSEFMRLHKPYQHVSSDTEPFTIPYLPGDIKLTKMKLPIFVRENSENEFSKFITKVKESESFCYGVVVNSFYELEAEYVDCYKDVLGRKTWTIGPLSLTNTKTQEITLRGRESAIDEHECLKWLDSQKPNSVVYVCFGSLAKFNSAQLKEIAIGLEASGKKFIWVVRKGKGEEEEEEQNWLPEGYEERMEGTGLIIRGWAPQVLILDHPSVGGFVTHCGWNSTLEGVAAGVPMVTWPVGAEQFYNEKLVTEVLKTGVGVGVQKWAPGVGDFIESEAVEKAIRRIMEKEGEEMRNRAIELGKKAKWAVGEEGSSYSNLDALIEELKSLAF
conversion of fed cannabinoid to cannabinoid glycoside in vivo ([3]; E. coli, 250 μM CBN fed, to OB23): 100%

Source: patent US20220290200A1, “GENETICALLY MODIFIED HOST CELLS PRODUCING GLYCOSYLATED CANNABINOIDS” (OCTARINE BIO IVS, priority 2019, published 2022)
